This is an account of results in patent US20260184782A1 (TWIST BIOSCIENCE, published 2026).

As usually defined, the EC50 is the concentration that produces a half-maximal response. One may read the Kd as a measure of binding affinity in units of concentration. The low end stands for tighter binding, the high end for weaker binding. For orientation: koff means the first-order rate constant of dissociation. A high value points to fast dissociation. For orientation: kon means the second-order rate constant of association.

Positions count from the first letter of the chain named.

Experiment [1] concerns the target T1, human TIGIT-Fc (human, UniProt Q495A1 22-141, limits assumed).
T1 construct: not shown: Fc; not described
T1 sequence (looked up): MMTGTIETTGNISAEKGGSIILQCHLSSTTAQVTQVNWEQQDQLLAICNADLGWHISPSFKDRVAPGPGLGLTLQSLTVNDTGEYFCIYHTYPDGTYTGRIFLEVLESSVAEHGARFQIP
Description: CD155 competition ELISA, titration. The method, then:
(§1) TIGIT/CD155 inhibition of VHH-Fcs were assessed using an ELISA assay (Table 10B). Briefly, human TIGIT-Fc was coated on a plate & then incubated with VHH-Fcs and human CD155-biotin. Bound CD155-biotin was detected using a streptavidin-HRP conjugate visualized with TMB. Strong inhibitors from the single point screen were titrated to determine EC50 (Table 10C).
On the technique in general: In an ELISA, binding on a coated surface is turned into a signal by an enzyme label.

Experiment [2] concerns the target T1, human TIGIT-Fc. Description: CD155 competition ELISA, single point. The method, then: as §1
In experiment [3] the target is T2, TIGIT (UniProt Q495A1 22-141, limits assumed).
T2 construct: also called T cell immunoreceptor with Ig and ITIM domains; hTIGIT
T2 sequence (looked up): T1 sequence (looked up)
Put plainly: SPR, VHH-V5-His. In general terms: SPR reads the build-up and loss of mass on a sensor chip optically.

B1: TIGIT-SC31 (Fc fusion)
VHH: EVQLVESGGGLVQPGGSLRLSCAASGRAFESYAMGWFRQAPGKERELVATIGWSGTDYADSVKGRFTISADNSKNTAYLQMNSLKPEDTAVYYCAKGYTSGLSDWGQGTLVTVSS
notes: VHH-Fc
As to B1, the half-maximal effective concentration (EC50) in experiment [1] was 1.78 nM. Besides, the “OD (450 nm)” value in experiment [2] amounted to 0.125 OD.

B2: TIGIT-SC192 (Fc fusion)
VHH: EVQLVESGGGLVQPGGSLRLSCAASGFTFSVYWMGWFRQAPGKEREFVAAISRSGTLKEYADSVKGRFTISADNSKNTAYLQMNSLKPEDTAVYYCARGSGWPKIHFDYWGQGTLVTVSS
notes: VHH-Fc
As for B2, in experiment [2], the “OD (450 nm)” value was found to be 0.487 OD.

B3: TIGIT-SC182 (Fc fusion)
VHH: EVQLVESGGGLVQPGGSLRLSCAASGFTFSSSSMGWFRQAPGKEREFVAAINWSGGSTSYADSVKGRFTISADNSKNTAYLQMNSPKPEDTAVYYCAKDRSYSFDYWGQGTLVTVSS
notes: VHH-Fc
For the molecule B3, in experiment [2], the “OD (450 nm)” value was 0.607 OD.

B4: TIGIT-SC205 (Fc fusion)
VHH: EVQLVESGGGLVQPGGSLRLSCAASGFTFDRSWMGWFRQAPGKEREFVAAIWRSGTLKAYADSVKGRFTISADNGKNTAYLQMNSLKPEDTAVYYCAEGGTTAWGWFVPWGQGTLVTVSS
notes: VHH-Fc
B4: the “OD (450 nm)” value in experiment [2] worked out at 0.441 OD.

B5: TIGIT-SC46 (Fc fusion)
VHH: EVQLVESGGGLVQPGGSLRLSCAASGRTFSNYVMGWFRQAPGKERELVASISSFGSTYYADSVKGRFTISADNSKNTAYLQMNSLKPEDTAVYYCARSGGFLSDWGQGTLVTVSS
notes: VHH-Fc
B5: the response in experiment [1] was half-maximal at 1.37 nM (EC50). The “OD (450 nm)” value in experiment [2] was 0.111 OD.

B6: TIGIT-SC181 (Fc fusion)
VHH: EVQLVESGGGLVQPGGSLRLSCAASGFTLSSNWMGWFRQAPGKEREFVASVLRGGYTWYADSVKGRFTISADNSKNTAYLQMNSLKPEDTAVYYCARDAYYYGLWGQGTLVTVSS
notes: VHH-Fc
With B6, in experiment [2], the “OD (450 nm)” value was 0.554 OD.

B7: TIGIT-SC38 (Fc fusion)
VHH: EVQLVESGGGLVQPGGSLRLSCAASGFTFSEYPMGWFRQAPGKEREFVAVVNWNGDSTYYADSVKGRFTISADNSKNTAYLQMNSLKPEDTAVYYCARGSDWYRYWGQGTLVTVSS
notes: VHH-Fc
B7 gave an EC50 in experiment [1] of 0.181 nM. Besides, the “OD (450 nm)” value in experiment [2] came to 0.143 OD.

B8: TIGIT-SC36 (Fc fusion)
VHH: EVQLVESGGGLVQPGGSLRLSCAASGNTFNFNVMGWFRQAPGKEREAVASIWRSGGNTYYADSVKGRFTISADNSKNTAYLQMNSLKPEDTAVYYCARDLEWRPYYMDVWGQGTLVTVSS
notes: VHH-Fc
For B8, the midpoint of the response in experiment [1], the EC50, lay at 2.08 nM. Further, the “OD (450 nm)” value in experiment [2] is 0.144 OD.

B9: TIGIT-SC186 (Fc fusion)
VHH: EVQLVESGGGLVQPGGSLRLSCAASGNTFSGGFMGWFRQAPGKEREYVASVLRGGYTWYADSVKGRFTISADNSKNTTYLQMNSLKPEDTAVYYCTTDRGYNWNYDWGQGTLVTVSS
notes: VHH-Fc
On to B9, for which, in experiment [2], the “OD (450 nm)” value amounted to 0.576 OD.

B10: TIGIT-30-58 (VHH-V5-His) (VHH)
VHH: EVQLVESGGGLVQAGGSLRLSCAASGFAFGDSWMGWFRQAPGKEREWVSGISSGGGRTYYADSVKGRFTISADNAKNTVYLQMNSLKPEDTAVYYCAADVWYGSTWRNWGQGTQVTVSS
notes: not shown: V5-His tag
In experiment [3], B10 showed a Kd of 1060 nM, an RU of 120 RU, a koff of 0.01 s⁻¹ and a kon of 10000 M⁻¹ s⁻¹.

B11: TIGIT-SC199 (Fc fusion)
VHH: EVQLVESGGGLVQPGGSLRLSCAASGFSSAQYAMGWFRQAPGKERELVASIDSEGRTNYADSVKGRFTISADNSKNTAYLQMNSLKPEDTAVYYCTRDGGFDPWGQGTLVTVSS
notes: VHH-Fc
As for B11, the “OD (450 nm)” value in experiment [2] turned out to be 0.503 OD.

B12: TIGIT-SC213 (Fc fusion)
VHH: EVQLVESGGGLVQPGGSLRLSCAASGTFQRINAMGWFRQAPGKEREFVAAIWRSGTLKAYADSVKGRFTISADNSKNTAYLQMNSLKPEDTAVYYCARWVGASGDYWIDYWGQGTLVTVSS
notes: VHH-Fc
In the case of B12, the “OD (450 nm)” value in experiment [2] was 0.587 OD.

B13: TIGIT-31-56 (VHH-V5-His) (VHH)
VHH: EVQLVESGGGLVQPGGSLRLSCAASGRIFRRNSMGWFRQAPGKEREFVAVITRSGGGEVTTYADSVKGRFTINADNSKNTAYLQMNSLKPEDTAVYYCAMSSVTRGSSDWGQGTLVTVST
notes: not shown: V5-His tag
Regarding B13, in experiment [3], the affinity, expressed as Kd, was 382 nM; the RU is 301 RU; the koff is 0.01 s⁻¹; the on-rate (kon) was 30000 M⁻¹ s⁻¹.

B14: TIGIT-SC214 (Fc fusion)
VHH: EVQLVESGGGLVQPGGSLRLSCAASGFTFGDSWMGWFRQAPGKEHEFVAAIWRSGTLKAYADSVKGRFTISADNSKNTAYLQMNSLKPEDTAVYYCTSYDAVAGTRDFWGQGTLVTVSS
notes: VHH-Fc
On to B14, for which the “OD (450 nm)” value in experiment [2] was 0.828 OD.

B15: TIGIT-SC208 (Fc fusion)
VHH: EVQLVESGGGLVQPGGSLRLSCAASGFLFDSYVMGWFRQAPGKEREFVAAIWRSGTLKAYADSVKGRFTISADNSKNTEYLQMNSLKPEDTAVYYCARDDYGDTRRYFQHWGQGTLVTVSS
notes: VHH-Fc
B15: the “OD (450 nm)” value in experiment [2] stood at 0.544 OD.

B16: TIGIT-SC207 (Fc fusion)
VHH: B15 VHH with L28A, D30S
notes: VHH-Fc
Take B16: the “OD (450 nm)” value in experiment [2] was determined as 0.504 OD.

B17: TIGIT-SC209 (Fc fusion)
VHH: B15 VHH with D30N, V33W, T104Y, R106I
notes: VHH-Fc
Turning to B17, in experiment [2], the “OD (450 nm)” value was determined as 0.56 OD.

B18: TIGIT-30-54 (VHH-V5-His) (VHH)
VHH: EVQLVESGGGLVQAGGSLRLSCAASGFTFRSFGMGWFRQAPGKEREFVASTIWSRGDTYYADSVKGRFTISADNAKNTVYLQMNSLKPEDTAVYYCASSPYGPLYRSTHYYDWGQGTQVTVSS
notes: not shown: V5-His tag
With B18, in experiment [3], the affinity, expressed as Kd, was 1090 nM; the RU was found to be 130 RU; the koff worked out at 0.04 s⁻¹; the on-rate (kon) turned out to be 30000 M⁻¹ s⁻¹.

B19: TIGIT-31-34 (VHH-V5-His) (VHH)
VHH: EVQLVESGGGLVQPGGSLRLSCAASGRSRYGMGWFRQAPGKEREFVSAISWSGISTYYADSVKGRFTISADNSKNTAYLQMNSLKPEDTAVYYCAATQWGSSGWKQARWYDWGQGTLVTVSS
notes: not shown: V5-His tag
In experiment [3], B19 yielded a Kd of 473000 nM, an RU of 25300 RU, a koff of 0.2 s⁻¹ and a kon of 400 M⁻¹ s⁻¹.

B20: TIGIT-SC206 (Fc fusion)
VHH: EVQLVESGGGLVQPGGSLRLSCAASGFLFDSYVMGWFRQAPGKEREFVAAIWRSGTLKAYADSVKGRFTISADNSKNTAYLQMNGLKPEDTAVYYCAGVGTDYGDYLFNYWGQGTLVTVSS
notes: VHH-Fc
Consider B20, for which, in experiment [2], the “OD (450 nm)” value came out at 0.517 OD.

B21: TIGIT-31-06 (VHH-V5-His) (VHH)
VHH: EVQLVESGGGLVQPGGSLRLSCAASGFTFSTSWMGWFRQAPGKERELVASITSGGSTYYADSVKGRFTISADNSKNTAYLQMNSLKPEDTAVYYCAADVWYGSTWRNWGQGTLVTVSS
notes: also called TIGIT-31-6; 31-6; not shown: V5-His tag
Turning to B21, in experiment [3], the equilibrium dissociation constant (Kd) came out at 145 nM, the RU is 107 RU, the off-rate (koff) is 0.003 s⁻¹ and the on-rate constant (kon) came to 20000 M⁻¹ s⁻¹.

B22: TIGIT-31-47 (VHH-V5-His) (VHH)
VHH: B21 VHH with T31G, S32N, L47W, A49V, S50G, T52S, S56T, T57P, Y58H
notes: not shown: V5-His tag
In experiment [3], B22 came in with a dissociation constant (Kd) of 186 nM, an RU of 119 RU, a koff of 0.004 s⁻¹ and a kon of 20000 M⁻¹ s⁻¹.

B23: TIGIT-31-20 (VHH-V5-His) (VHH)
VHH: B21 VHH with T31G, S32N, L47F, S50G, T52L, G54D, S56R, T57E, Y58L
notes: not shown: V5-His tag
In experiment [3], B23 had a Kd of 281 nM, an RU of 45 RU, a koff of 0.004 s⁻¹ and a kon of 10000 M⁻¹ s⁻¹.

B24: TIGIT-31-01 (VHH-V5-His) (VHH)
VHH: B21 VHH with S30D, T31R, L47V
notes: also called TIGIT-31-1; 31-1; not shown: V5-His tag
As for B24, in experiment [3], binding was put at a Kd of 169 nM, the RU was determined as 122 RU, the off-rate constant (koff) is 0.004 s⁻¹ and the kon amounted to 20000 M⁻¹ s⁻¹.

B25: TIGIT-31-08 (VHH-V5-His) (VHH)
VHH: B21 VHH with S50A, I51R, T52N, S56N, Y58N
notes: also called TIGIT-31-8; 31-8; not shown: V5-His tag
In experiment [3], B25 returned a Kd of 210 nM, an RU of 178 RU, a dissociation rate constant (koff) of 0.009 s⁻¹ and a kon of 40000 M⁻¹ s⁻¹.

B26: TIGIT-31-32 (VHH-V5-His) (VHH)
VHH: B21 VHH with S50A, I51M, S56G, Y58N
notes: not shown: V5-His tag
In experiment [3], B26 registered a Kd of 102 nM, an RU of 145 RU, a koff of 0.006 s⁻¹ and a kon of 60000 M⁻¹ s⁻¹.

B27: TIGIT-31-26 (VHH-V5-His) (VHH)
VHH: B21 VHH with S30D, T31R, S50A
notes: not shown: V5-His tag
With B27, in experiment [3], the affinity, expressed as Kd, was 158 nM; the RU was found to be 59 RU; the koff was 0.003 s⁻¹; the kon was 20000 M⁻¹ s⁻¹.

B28: TIGIT-31-35 (VHH-V5-His) (VHH)
VHH: B21 VHH with S56T, Y58N
notes: not shown: V5-His tag
In experiment [3], B28 had an equilibrium dissociation constant (Kd) of 346 nM, an RU of 78 RU, a koff of 0.01 s⁻¹ and an on-rate (kon) of 30000 M⁻¹ s⁻¹.

B29: TIGIT-SC204 (Fc fusion)
VHH: EVQLVESGGGLVQPGGSLRLSCAASGFLFNSYWMVWFRQAPGKEREFVAAIWRSGTLKAYADSVKGRFTISADNSKNTAYLQMNSLKPEDTAVYYCAADVNYGSTWRNWGQGTLVTVSS
notes: VHH-Fc
In the case of B29, the “OD (450 nm)” value in experiment [2] turned out to be 0.449 OD.

B30: TIGIT-SC190 (Fc fusion)
VHH: EVQLVESGGGLVQPGGSLRLSCAASGFTFDRSWMGWFRQAPGKEREWVASVLRGGYTWYADSVKGRFTISADNSKNTAYLQMNSLKPEDTAVYYCVTDVGAPDYWGQGTLVTVSS
notes: VHH-Fc
On to B30, for which the “OD (450 nm)” value in experiment [2] amounted to 0.533 OD.
